Measured values reported in paper PMC4773759 (Scientific Reports, 2016).
Entries after “also recorded” stand apart in the source; their conditions may differ.

Legend:
[1] = molecular target: T1, rhECE-1 (Homo sapiens, UniProt P42892); assay: ECE-1 activity, bradykinin-based QFS assay; type: biochemical; conditions: 10 ng/μL, rhECE-1 0.05 ng/μL, 1 h pre-incubation 37 °C, QFS 40 μM; comparisons with K49-P1-20 or enzyme alone
T1 construct: purchased R & D systems
T1 sequence (P42892 1-770): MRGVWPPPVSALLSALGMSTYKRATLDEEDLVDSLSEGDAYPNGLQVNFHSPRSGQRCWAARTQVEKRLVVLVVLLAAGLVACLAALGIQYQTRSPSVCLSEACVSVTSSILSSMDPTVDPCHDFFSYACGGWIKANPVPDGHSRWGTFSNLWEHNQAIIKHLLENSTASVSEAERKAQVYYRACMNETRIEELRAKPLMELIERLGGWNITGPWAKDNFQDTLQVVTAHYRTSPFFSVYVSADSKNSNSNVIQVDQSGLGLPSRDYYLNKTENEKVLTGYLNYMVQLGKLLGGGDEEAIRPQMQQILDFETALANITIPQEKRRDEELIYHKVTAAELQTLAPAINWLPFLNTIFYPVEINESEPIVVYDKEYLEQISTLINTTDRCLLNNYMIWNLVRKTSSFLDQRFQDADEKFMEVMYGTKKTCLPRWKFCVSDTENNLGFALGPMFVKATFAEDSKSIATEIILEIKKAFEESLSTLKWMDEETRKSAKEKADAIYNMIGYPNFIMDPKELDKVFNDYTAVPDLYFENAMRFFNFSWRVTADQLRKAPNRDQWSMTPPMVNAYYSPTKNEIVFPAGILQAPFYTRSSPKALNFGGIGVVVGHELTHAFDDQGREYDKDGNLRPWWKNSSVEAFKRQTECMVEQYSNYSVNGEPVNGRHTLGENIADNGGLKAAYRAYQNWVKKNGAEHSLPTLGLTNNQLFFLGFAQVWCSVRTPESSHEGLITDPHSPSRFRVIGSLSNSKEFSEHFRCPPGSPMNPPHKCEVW
Description: Enzyme activities were measured using a previously described bradykinin-based quenched fluorescent substrate (QFS) assay. Briefly, rhECE-1 or NEP (0.05 ng/μL) was incubated with ECE-1 buffer for 1 h at 37 °C. Where indicated, venom, B. asper myotoxin II or relevant synthetic peptide (10 ng/μL) was added to the reaction mixture and pre-incubated (1 h at 37 °C) with rhECE-1 or rhNEP prior to the addition of substrate ((7-methoxycoumarin-4-yl)acetyl-Arg-Pro-Pro-Gly-Phe-Ser-Ala-Phe-Lys(2, 4-dinitrophenyl); 40 μM final). The specificity of ECE-1 and NEP mediated cleavage was confirmed using the inhibitors CGS35066 (500 nM) and thiorphan (10 µM).
Increase in fluorescence over time (excitation and emission wavelengths of 320 and 405 nm respectively) was taken as evidence of enzyme activity. The specific activity for each enzyme was calculated using a standard curve of known 7-methoxycoumarin concentrations. Enzyme alone (rhECE-1, rhNEP, rhACE-2 and rhIDE) was used as a control in all studies examining the effect of K49-P1-20 on enzyme activity.
Non-linear regression analysis in GraphPad Prism software (version 6.04; Michaelis Menton equation) was used to calculate the enzyme kinetic parameters (Vmax and Km). In all enzyme assays the amount of substrate cleaved over 80 min was determined. Where indicated, enzyme activity in the presence of K49-P1-20 was expressed as a % of the respective control. The enzyme kinetic parameters were determined based on the rate of substrate cleavage.

[2] = test system: trypsin; assay: trypsin mediated cleavage of K49-P1-20
[3] = molecular target: T1, rhECE-1; assay: Cleavage of endogenous Aβ42 in cerebrospinal fluid by activated ECE-1 (ELISA); type: biochemical; conditions: CGS35066 500 nM, rhECE-1 0.04 ng/μL, K49-P1-20 300 ng/μL, 4 h
Description: Aβ42 levels were measured using a commercially available Human Aβ42 ELISA kit (Life technologies), according to the manufacturer’s instructions. rhECE-1 (0.04 ng/μL) alone, rhECE + K49-P1-20 (300 ng/μL) or rhECE + K49-P1-20 + CGS35066 (500 nM) was incubated at 37 °C for 1 hr. Cerebrospinal fluid (diluted 1:10 in assay buffer) from patients with Alzheimer’s disease was added to each reaction mixture. The final volume of cerebrospinal fluid added was kept to 1/10th the final volume of reaction mixture, which was adjusted using ECE-1 buffer. Aliquots of equal volume were taken at 0 and 4 h, snap frozen in dry ice and stored at −80 °C until analysed by ELISA. The amount of Aβ42 remaining after 4 h was expressed as a % of initial.

## B. asper myotoxin II
[1]
  Stimulation of ECE-1 activity (in words): ECE-1 stimulation

## SLFELGKMILQETGKNPAKS
[2]
  cleaved bond: K7-M8

## O=C(O)C(Cc1ccc2c(c1)oc1ccccc12)NCP(=O)(O)O (centres unmarked) [CGS35066]
[3]
  Effect on the Aβ42 decrease by ECE-1 + K49-P1-20 in cerebrospinal fluid: blocked

## K49-P1-34: synthetic peptide corresponding to the N-terminal region of B. asper myotoxin II
[1]
  Stimulation of ECE-1 activity (in words): mimicked the stimulator effects; also recorded: No significant difference

## K49-P9-34: synthetic peptide from the N-terminal region of B. asper myotoxin II
[1]
  Stimulation of ECE-1 activity (in words): significantly less
